Data set [1] concerns the target T1, COUP-TFII-GST (mouse, UniProt P43135 1-414).
T1 sequence: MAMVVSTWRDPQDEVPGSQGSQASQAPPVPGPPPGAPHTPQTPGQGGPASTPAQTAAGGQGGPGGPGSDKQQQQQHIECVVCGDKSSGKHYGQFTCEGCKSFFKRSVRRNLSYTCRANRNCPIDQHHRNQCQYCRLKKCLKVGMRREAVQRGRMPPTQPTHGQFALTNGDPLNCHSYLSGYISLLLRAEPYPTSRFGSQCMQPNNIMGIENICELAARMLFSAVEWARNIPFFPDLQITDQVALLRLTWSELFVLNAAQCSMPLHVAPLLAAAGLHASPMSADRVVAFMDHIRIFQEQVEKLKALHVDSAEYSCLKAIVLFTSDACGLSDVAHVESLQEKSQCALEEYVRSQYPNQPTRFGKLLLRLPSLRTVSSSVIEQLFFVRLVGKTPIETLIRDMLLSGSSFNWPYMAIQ
Description: EMSA. (Mobility shift assays separate free from complexed probe on a gel.)

Another data set has as its target T2, COUP-TFII;NKX2-1 (mouse;, UniProt P43135;P50220 1-414;1-372, |).
T2 sequence 1: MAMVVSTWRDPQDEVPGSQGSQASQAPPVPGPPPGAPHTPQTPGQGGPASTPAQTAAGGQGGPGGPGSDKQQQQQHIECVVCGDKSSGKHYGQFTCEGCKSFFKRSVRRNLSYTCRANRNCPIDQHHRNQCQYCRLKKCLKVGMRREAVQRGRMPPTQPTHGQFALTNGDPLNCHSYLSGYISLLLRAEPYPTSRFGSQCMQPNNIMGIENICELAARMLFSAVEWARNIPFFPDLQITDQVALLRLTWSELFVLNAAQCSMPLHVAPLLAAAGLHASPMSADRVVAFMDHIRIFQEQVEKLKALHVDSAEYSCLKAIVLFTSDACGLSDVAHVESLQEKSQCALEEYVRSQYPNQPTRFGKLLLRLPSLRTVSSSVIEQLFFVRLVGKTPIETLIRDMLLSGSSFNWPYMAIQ
T2 sequence 2: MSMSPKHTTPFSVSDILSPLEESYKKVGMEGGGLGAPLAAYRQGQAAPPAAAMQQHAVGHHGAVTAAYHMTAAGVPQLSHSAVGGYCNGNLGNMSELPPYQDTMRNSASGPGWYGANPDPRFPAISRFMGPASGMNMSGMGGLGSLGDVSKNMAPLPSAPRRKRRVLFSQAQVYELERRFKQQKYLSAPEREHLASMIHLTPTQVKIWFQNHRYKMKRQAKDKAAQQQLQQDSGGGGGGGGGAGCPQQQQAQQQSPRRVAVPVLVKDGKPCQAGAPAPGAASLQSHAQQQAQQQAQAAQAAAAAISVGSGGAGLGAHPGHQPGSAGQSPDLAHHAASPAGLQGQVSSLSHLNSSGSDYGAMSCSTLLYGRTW
Description: EMSA.

Data set [2] addresses T3, COUP-TFII-GST (mouse, UniProt P43135 1-414).
T3 sequence (looked up): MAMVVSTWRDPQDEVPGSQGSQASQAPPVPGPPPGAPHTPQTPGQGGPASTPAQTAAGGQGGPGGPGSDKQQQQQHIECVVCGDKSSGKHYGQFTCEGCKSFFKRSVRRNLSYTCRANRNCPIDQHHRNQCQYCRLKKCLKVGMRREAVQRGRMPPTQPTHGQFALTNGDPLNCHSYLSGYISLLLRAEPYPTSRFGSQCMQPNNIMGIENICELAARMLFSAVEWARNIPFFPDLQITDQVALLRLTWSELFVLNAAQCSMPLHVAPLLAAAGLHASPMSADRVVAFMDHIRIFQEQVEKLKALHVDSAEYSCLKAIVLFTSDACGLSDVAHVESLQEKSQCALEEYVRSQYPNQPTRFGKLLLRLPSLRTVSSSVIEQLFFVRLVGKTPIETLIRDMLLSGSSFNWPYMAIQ
Description: native gel or EMSA.

Data set [3] has as its target T4, recombinant COUP-TFII (construct not told for this experiment) (mouse, UniProt P43135 1-414).
T4 sequence (looked up): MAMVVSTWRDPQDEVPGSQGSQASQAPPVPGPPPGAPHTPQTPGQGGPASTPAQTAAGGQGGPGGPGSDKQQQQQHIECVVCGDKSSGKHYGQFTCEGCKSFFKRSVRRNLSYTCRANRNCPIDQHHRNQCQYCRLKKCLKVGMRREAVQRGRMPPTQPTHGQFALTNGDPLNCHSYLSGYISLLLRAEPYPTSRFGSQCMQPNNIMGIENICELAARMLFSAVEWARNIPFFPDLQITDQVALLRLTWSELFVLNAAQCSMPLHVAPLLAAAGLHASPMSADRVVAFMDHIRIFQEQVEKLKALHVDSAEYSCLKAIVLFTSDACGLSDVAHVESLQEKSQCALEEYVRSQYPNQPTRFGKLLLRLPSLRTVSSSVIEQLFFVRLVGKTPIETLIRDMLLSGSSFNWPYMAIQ
Description: native gel or EMSA.

B1: CE_ΔC_AB (dsDNA)
DNA 1: CCATGCACTTGAAAAAAAATGGAAAAACACCTCC
DNA 2: GGAGGTGTTTTTCCATTTTTTTTCAAGTGCATGG
B1: the binding result with COUP-TFII-GST [1] is given as “no binding”.

B2: Nrp2 NCCE (dsDNA)
DNA 1: TTGCCAAATTATGTGACCTTTGGCAGACCAGCTG
DNA 2: CAGCTGGTCTGCCAAAGGTCACATAATTTGGCAA
As to B2, the binding result with COUP-TFII;NKX2-1 is recorded as “binds”.

B3: recombinant NKX2-3 (natural protein, mouse, UniProt P97334 1-362, looked up)
chain: MMLPSPVTSTPFSVKDILNLEQQRHFHGAHLQAELEQHFHSAPCMLATAEGTQFSDAGEEDEEEEGEKLSYLNSLAAAEGHGDSGLCPQSYVHTVLRDACSGPKEQEEEVVSERSQKSCQLKKSLEAAGDCKTSEDGERPKPRSRRKPRVLFSQAQVFELERRFKQQRYLSAPEREHLASSLKLTSTQVKIWFQNRRYKCKRQRQDKSLELGTHAPPPPPRRVAVPVLVRDGKPCVTPSAQTYGSPYGVGAGAYSYNSFPAYGYGNSAAAAAAAAAAAAAAAAYSGSYGCAYPTGGGGGGGGTASAATTAMQPACSATGGGSFVNVSNLGGFGSGGGAQPLHQGAAAGSACTQGTLQGIRAW
Consider B3, for which the binding result (with COUP-TFII-GST [2]; in data set [3]) was “binds” throughout.

Values taken from publication doi:10.1101/2022.02.17.480956 (bioRxiv, 2022).
